Test system: MS2 coat protein
Assay: apparent KD of MS2 coat protein; designed switch direction (-1 OFF switch, 1 ON switch): -1; higher = weaker reporter binding
Summary of the method: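 Designed RNA switches were transcribed on Illumina chips by stalled E. coli RNA polymerase and titrated with SNAP-549-labelled MS2 coat protein from 0.7 or 1.5 nM, doubling to 3 µM. Step length ran from 0.8–1.5 h at the lowest concentration to 10–20 min at the highest. The apparent KD is the median over clusters for each design, from curve-fitted normalised cluster fluorescence.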

[1] = input ligand: microRNA oligo, concentration not stated
[2] = Eterna round: R95, input ligand: microRNA oligo, concentration not stated
[3] = Eterna round: R95, input ligand: FMN 200 uM
[4] = Eterna round: R95, input ligand: none

Row | Sequence | apparent KD of MS2 coat protein [1] [nM] | apparent KD of MS2 coat protein (input ligand: FMN 200 uM) [nM] | apparent KD of MS2 coat protein (input ligand: none) [nM] | apparent KD of MS2 coat protein [2] [nM] | apparent KD of MS2 coat protein [3] [nM] | apparent KD of MS2 coat protein [4] [nM]
1 | UAAUAAAGUGUGAGGAUAUGCUGGUCCAUAGAUCAGCAGAAGGCACAUGAGGAUCACCCAUGUAAUAUAUAAAU [Mat - Exclusion 4 - JL Mod - D57] (Eterna round: R96, puzzle: Brourd's mod of Exclusion 4) | 23.7 |  |  |  |  | 
2 | ACAUGAGGAUCACCCAUGUAAUGAAGGGUACUAUACUAAACGUAGGAUAUCGAUGUAAGAUUGUACGAGAAGGACGAUUGCCUU [JR_ExcNG3_Sub051] (Eterna round: R96, puzzle: Exclusion NG 3) | 29.3 |  |  |  |  | 
3 | UUUUACAAGCUAAGAUCCUACAUGAGGAUCACCCAUGUGGUCCGGUGACGUGAGUCACCGGACUUAGCUCGUCUUGA [salish99_S_TOV1_R5_085] (Eterna round: R97, puzzle: Sensor, turn-off variant 1) |  | 38.9 | 40.4 |  |  | 
4 | CGAUGAGGAGUGAGGAUAUCGUGUUCGAAAGAACGUGAGAAGGCACAUGAGGAUCACCCAUGUGAUACUUGUCG [Omei Ex4B A15] (Eterna round: R97, puzzle: Brourd's mod of Exclusion 4) |  | 60.9 | 19.6 |  |  | 
5 | AAGUCGGCAGGAUAUACAUGAGGAUCACCCAUGUAAAUUUUUCGUUUAACUUGAAUGUGUAGAAGGGCCAUAAA [Ex3 #66] (Eterna round: R97, puzzle: Exclusion 3) |  | 24.3 | 24.5 |  |  | 
6 | GGAUAUAAUGUGAGGAUAUCUGCGAUACCUAGUCGAGAGAAGGCACAUGAGGAUCACCCAUGUGAGGACCUCGU [Eternabot (L1) Solution 98] (Eterna round: R97, puzzle: Brourd's mod of Exclusion 4) |  | 29.6 | 19.4 |  |  | 
7 | UAUUACCUAGGAUAUACAUGAGGAUCACCCAUGUCACGGGUCAACUUGUCCUAUGCGUGUAGAAGGAGGGACCC [JL Ceriza mod 6] (puzzle: Exclusion 3) |  |  |  | 18.9 |  | 
8 | UGCUGAGUUGACAGUGGUAACAUGAGGAUCACCCAUGUAUGUUUGUGCUUAAGCGGGUUGUUUCUUGUUCGUCUCUC [Eternabot (L2) Solution 5] (Eterna round: R97, puzzle: Sensor, turn-off variant 1) |  | 262 | 349 |  |  | 
9 | UAGGAGCAAGGAUAUACGAGGAUAUGGUAGUUUGUAGAGUGACAUGAGGAUCACCCAUGUAGAAGGUGCGUGUG [JR_Exclu2_Sub0100] (puzzle: Exclusion 2) |  |  |  | 82.9 |  | 
10 | AUGGGUCCUCACGGAGCUACAUGAGGAUCACCCAUGUGGAUUGAGGAUAUCGACUGCCGACGGCUCGAGAAGGCAGUUUACUGU [Ex NG3 #95] (Eterna round: R96, puzzle: Exclusion NG 3) | 14.3 | 18.6 | 20.2 |  |  | 
11 | CUAAAUCAUGUAGGAUAUGCGUGGCGAAGCUAUGCAGAAGGACAUGAGGAUCACCCAUGUGCUUCCGUCUGCGUACAGACGGUA [JL ENG1 1.16] (Eterna round: R96, puzzle: Exclusion NG 1) | 59.7 | 136 | 83.3 |  |  | 
12 | ACAGUACUGCAAGGAUAUCGUUCUAGUUUAUUACGAGAAGGUGCUUUAGUUAUUUCUUUGUGUUGACAUGAGGAUCACCCAUGU [JR_ExcNG1_Sub055] (Eterna round: R96, puzzle: Exclusion NG 1) | 17.9 | 18.9 | 26.4 |  |  | 
13 | GAAGAACAUGAGGAUCACCCAUGUGAGGAUAUGAAAAAGAAAAGAAAAGAAAGAAGAAUCAGAAGGCACAAAGG [Mat - Mod of Hog D2] (puzzle: Exclusion 1) |  |  |  | 23.1 | 50.8 | 38.3
14 | GGAUAUAACGUAGGAUAUCAGAGAAACAGACGAUGAGAAGGACGACAUGAGGAUCACCCAUGUGAUCUAUCAAUAUUAUACAUG [Prohibition 98 - Jieux - Exclusion NG 1] (Eterna round: R96, puzzle: Exclusion NG 1) | 434 | 874 | 712 |  |  | 
15 | AGCCCUUGUGUCAGGAUAUGCAUCCUUAAAGGACGGCAGAAGGGACAUGAGGAUCACCCAUGUAAAUAGAAAUU [Onatatge] (puzzle: Brourd's mod of Exclusion 4) |  |  |  | 84 | 16.2 | 141
16 | GGGCCCGGUGUGAGGAUAUUUGAAGUGAAAGCUUCGGAGAAGGCACAUGAGGAUCACCCAUGUAAGCCGGGCCC [-35.9, -33.8 kcal, A 26%, 3bis-0] (Eterna round: R97, puzzle: Brourd's mod of Exclusion 4) |  | 16.1 | 13.4 |  |  | 
17 | AUUGAUGUUGAGGAUAUGCAUAUAUUUAUAAAAGCAGAAGGCGAUACAUGAGGAUCACCCAUGUUCAUGGAAGU [JR_E6_Sub094] (puzzle: Exclusion 6) |  |  |  | 35 | 46.7 | 51.3
18 | AUCGUGUGAGGAUAUCGAUCAUGGAGGUCUAGGUCUAUGCGCGAGAAGGCACAUGAGGAUCACCCAUGUAAUGG [jl-ex4-4.29 ViennaUCT mod] (Eterna round: R97, puzzle: Exclusion 4) |  | 59.9 | 636 |  |  | 
19 | GUAGAGACAGGAUAUACAUGAGGAUCACCCAUGUGAGGAGGAAAAGAGAGGAGAAAGAGUAGAAGGGUCGAAAG [JR_Exclu3_Sub030] (puzzle: Exclusion 3) |  |  |  | 35.7 | 41.4 | 43
20 | CGCUAUAGAGGAUAUACGAGAUCGAAAGAUCGGCGAUCCCUACAUGAGGAUCACCCAUGUAGAAGGCUAUAGCG [Mod 18 - Jieux - Exclusion 2] (Eterna round: R97, puzzle: Exclusion 2) |  | 83.3 | 15.7 |  |  | 
21 | AUAACGUGGGCGUCCCACGGCAAGCUUUUUGCUCGUUUGACAUGAGGAUCACCCAUGUAGCUGCGGGAUCCCUAUGA [Anatsobe] (puzzle: Sensor v3, turn-off variant 2) |  |  |  | 22.5 | 17.6 | 15.2
22 | GUGUACAGAGGAUAUGCACGAGUAGUUACGAAAGUAACUACACAUGAGGAUCACCCAUGUAGAAGGCUGUACAC [Dot plot directed v1] (puzzle: Exclusion 2) |  |  |  | 13.3 |  | 
23 | GUACUGAAGCUUUGCUUUAAUCGUACAUGAGGAUCACCCAUGUAGGAUAUGGUAGGCUUUGCUUACCAGAAGGACAGAGUGAUC [JL EXNG3 1.24] (Eterna round: R96, puzzle: Exclusion NG 3) | 124 | 217 | 136 |  |  | 
24 | UGAUCUAGCGGAGGAUAUACAUGAGGAUCACCCAUGUAUAGGCUAUGACCGUAGUCGUGGAACAUGUAGAAGGCCGCUAGAUCU [JL ENG2 3.79] (Eterna round: R96, puzzle: Exclusion NG 2) | 40.3 | 569 | 45.9 |  |  | 
25 | AUUUACAAGCUAAGAUCCUACAUGAGGAUCACCCAUGUGGUCCGGUGACGUGAGUCACCGGACUUAGCUCGUCUUGC [salish99_S_TOV1_R5_084] (Eterna round: R97, puzzle: Sensor, turn-off variant 1) |  | 37.2 | 38.1 |  |  | 

From the supplement of paper PMC9170038
